# Measured values from US10517958B2, “Compositions and methods for the treatment of platinum-drug resistant cancer” (ZYMEWORKS INC., priority 2016, dated 2019).
# Test system: UM-UC13 parental and ex vivo cells
# Experiment: Internalization assay (confocal microscopy)
# Type: cell-based, human
# Details: ex vivo and in situ G0-G6 tumor cells
# Protocol: UM-UC13 parental and ex vivo cells were seeded to cover slips and grown to 80% confluency. 100 nM rVAR2-V5 was incubated with the cells for 1 hour at 37° C. and 5% CO2. Cells were subsequently washed with PBS prior to fixation with 4% paraformaldehylde for 15 min at room temperature followed by permeabilization with 0.5% trition for 3 mins and blocked with 3% BSA for 30 mins. Cells were then incubated with primary Anti-V5 antibody from ThermoFischer (R960-25) according to manufacturer's instructions followed by 1 hour incubation with anti-mouse AlexaFluor488 secondary antibody from Invitrogen (A-21202). Cover slips were washed with PBS and mounted in mounting media containing DAPI and analyzed by laser-scanning confocal microscopy.
molecule,measurement,value
"rVAR2: ID1, DBL2X and ID2a domains of the full-length malarial VAR2CSA protein linked to a C-terminal V5 tag (protein) GHSDSGKYDPCEKKLPPYDDNDQWKCQQNSSDGSGKPENICVPPRRERLCTYNLENLKFDKIRDNNAFLADVLLTARNEGEKIVQNHPDTNSSNVCNALERSFADLADIIRGTDQWKGTNSNLEKNLKQMFAKIRENDKVLQDKYPKDQKYTKLREAWWNANRQKVWEVITCGARSNDLLIKRGWRTSGKSDRKKNFELCRKCGHYEKEVPTKLDYVPQFLRWLTEWIEDFYREKQNLIDDMERHREECTREDHKSKEGTSYCSTCKDKCKKYCECVKKWKTEWENQENKYKDLYEQNKNKTSQKNTSRYDDYVKDFFEKLEANYSSLENYIKGDPYFAEYATKLSFILNPSDANNPSGETANHNDEACNCNESGISSVGQAQTSGPSSNKTCITHSSIKTNKKKECKDVKLGVRENDKDLKICVIEDTSLSGVDNCCCQDLLGILQENCSDNKRGSSSNDSCDNKNQDECQKKLEKVFASLTNGYKCDKCKSGTSRSKKKWIWKKSSGNEEGLQEEYANTIGLPPRTQSLYLGNLPKLENVCEDVKDINFDTKEKFLAGCLIVSFHEGKNLKKRYPQNKNSGNKENLCKALEYSFADYGDLIKGTSIWDNEYTKDLELNLQNNFGKLFGKYIKKNNTAEQDTSYSSLDELRESWWNTNKKYIWTAMKHGAEMNITTCNADGSVTGSGSSCDDIPTIDLIPQYLRFLQEWVENFCEQRQAKVKDVITNCKSCKESGNKCKTECKTKCKDECEKYKKFIEACGTAGGGIGTAGSPWSKRWDQIYKRYSKHIEDAKRNRKAGTKNCGTSSTTNAAASTDENKCVQSDIDSFFKHLIDIGLTTPSSYLSNVLDDNICGADKAPWTTYTTYTTTEKCNKERDKSKSQSSDTLVVVNVPSPLGNTPYRYKYACQCKIPTNEETCDDRKEYMNQWSCGSARTMKRGYKNDNYELCKYNGVDVKPTTVRSNSSKLDSGRGELEGKPIPNPLLGLDSTRTGHHHHHH",internalization of rVAR2 protein,retained internalization capacity
